Results published in the supplement of paper PMC9112550, “Optimization of the antimicrobial peptide Bac7 by deep mutational scanning” (BMC Biology, 2022).

Test system: Escherichia coli TOP10
Test: shrunken log2 fold change of peptide-encoding DNA abundance (4.5 h post-induction vs induction); higher = less antimicrobial activity (less host growth inhibition)
Conditions: time post-induction: 4.5 h; library: site-saturation at positions 5, 18, 19, 20
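Also: peptides expressed intracellularly from a pBAD plasmid library in pooled LB shake-flask culture, induced with 0.3% L-arabinose, DNA abundance read by NGS, three biological replicates, DESeq2 with apeglm shrinkage.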

RRIRIRPPRLPRPRPRPMMCPRP and RRIRFRPPRLPRPRPRPIHLPRP are within 0.2 log units of each other in “shrunken log2 fold change” value: 0.0233 for the first, -0.154 for the second.

RRIRMRPPRLPRPRPRPHCFPRP and RRIRERPPRLPRPRPRPFKFPRP are within 0.2 log units of each other in “shrunken log2 fold change” value: -0.0715 for the first, -0.0774 for the second.

RRIRVRPPRLPRPRPRPFKKPRP and RRIRHRPPRLPRPRPRPYIKPRP are within 0.2 log units of each other in “shrunken log2 fold change” value: -0.115 for the first, -0.287 for the second.

First: RRIRVRPPRLPRPRPRPYLYPRP
Second: RRIRWRPPRLPRPRPRPSYEPRP
The “shrunken log2 fold change” value of the first is lower: -1.05 for the first, 0.086 for the second.

RRIRQRPPRLPRPRPRPERCPRP and RRIRVRPPRLPRPRPRPDQQPRP are within 0.2 log units of each other in “shrunken log2 fold change” value: 0.00749 for the first, 0.021 for the second.

Compared with RRIRIRPPRLPRPRPRPVCRPRP, RRIRIRPPRLPRPRPRPCFDPRP is lower in “shrunken log2 fold change” value: 1.56 for the first, -0.493 for the second.

First: RRIRWRPPRLPRPRPRPRPAPRP
Second: RRIRRRPPRLPRPRPRPPDCPRP
The “shrunken log2 fold change” value of the first is higher: 0.865 for the first, 0.326 for the second.

Compared with RRIRRRPPRLPRPRPRPDEQPRP, RRIRMRPPRLPRPRPRPFTVPRP is lower in “shrunken log2 fold change” value: 0.237 for the first, -0.00884 for the second.

RRIRRRPPRLPRPRPRPHSVPRP and RRIRERPPRLPRPRPRPKDFPRP are within 0.2 log units of each other in “shrunken log2 fold change” value: 0.0319 for the first, -0.00088 for the second.

Going from RRIRNRPPRLPRPRPRPLIHPRP to RRIRHRPPRLPRPRPRPLDEPRP, the “shrunken log2 fold change” value rises from -0.714 to -0.0217.

Compared with RRIRSRPPRLPRPRPRPDPAPRP, RRIRSRPPRLPRPRPRPIHEPRP is lower in “shrunken log2 fold change” value: 0.45 for the first, -0.00691 for the second.

RRIRFRPPRLPRPRPRPFEFPRP and RRIRNRPPRLPRPRPRPPTMPRP are within 0.2 log units of each other in “shrunken log2 fold change” value: -0.183 for the first, -0.126 for the second.

RRIRDRPPRLPRPRPRPGLTPRP and RRIRQRPPRLPRPRPRPLGLPRP are within 0.2 log units of each other in “shrunken log2 fold change” value: 0.262 for the first, 0.103 for the second.

Compared with RRIRNRPPRLPRPRPRPRKWPRP, RRIRHRPPRLPRPRPRPIALPRP is lower in “shrunken log2 fold change” value: 0.416 for the first, -0.355 for the second.

RRIRCRPPRLPRPRPRPHMCPRP and RRIRERPPRLPRPRPRPNLVPRP are within 0.2 log units of each other in “shrunken log2 fold change” value: 0.099 for the first, -0.0264 for the second.

First: RRIRNRPPRLPRPRPRPSTVPRP
Second: RRIRARPPRLPRPRPRPIEGPRP
The “shrunken log2 fold change” value of the first is lower: -0.103 for the first, 0.504 for the second.

RRIRERPPRLPRPRPRPILHPRP and RRIRWRPPRLPRPRPRPLSRPRP are within 0.2 log units of each other in “shrunken log2 fold change” value: -0.0255 for the first, 0.141 for the second.

First: RRIRCRPPRLPRPRPRPELDPRP
Second: RRIRGRPPRLPRPRPRPCFWPRP
The “shrunken log2 fold change” value of the first is lower: 0.00162 for the first, 0.67 for the second.

Going from RRIRNRPPRLPRPRPRPRTFPRP to RRIRTRPPRLPRPRPRPRWFPRP, the “shrunken log2 fold change” value rises from -0.078 to 0.196.

Compared with RRIRRRPPRLPRPRPRPWSSPRP, RRIRVRPPRLPRPRPRPSLYPRP is lower in “shrunken log2 fold change” value: 0.0446 for the first, -0.62 for the second.

Going from RRIRHRPPRLPRPRPRPKNYPRP to RRIRHRPPRLPRPRPRPHRTPRP, the “shrunken log2 fold change” value rises from -0.766 to -0.179.

RRIRIRPPRLPRPRPRPPFGPRP and RRIRMRPPRLPRPRPRPKAIPRP are within 0.2 log units of each other in “shrunken log2 fold change” value: 0.255 for the first, 0.417 for the second.

RRIRQRPPRLPRPRPRPNYCPRP and RRIRQRPPRLPRPRPRPEHTPRP are within 0.2 log units of each other in “shrunken log2 fold change” value: -0.0656 for the first, -0.0628 for the second.

First: RRIRVRPPRLPRPRPRPEYPPRP
Second: RRIRCRPPRLPRPRPRPRPFPRP
The “shrunken log2 fold change” value of the first is lower: -0.322 for the first, 0.176 for the second.

Going from RRIRIRPPRLPRPRPRPWPMPRP to RRIRFRPPRLPRPRPRPVFNPRP, the “shrunken log2 fold change” value falls from 0.0828 to -0.461.

Going from RRIRCRPPRLPRPRPRPFGAPRP to RRIRGRPPRLPRPRPRPHAVPRP, the “shrunken log2 fold change” value rises from 0.102 to 0.657.

First: RRIRWRPPRLPRPRPRPVTRPRP
Second: RRIRCRPPRLPRPRPRPNNYPRP
The “shrunken log2 fold change” value of the first is higher: -0.0273 for the first, -0.81 for the second.

Compared with RRIRARPPRLPRPRPRPVNWPRP, RRIRDRPPRLPRPRPRPRQHPRP is lower in “shrunken log2 fold change” value: 0.459 for the first, 0.153 for the second.

Compared with RRIRCRPPRLPRPRPRPQRWPRP, RRIRHRPPRLPRPRPRPDIHPRP is lower in “shrunken log2 fold change” value: 0.294 for the first, -0.171 for the second.

RRIRYRPPRLPRPRPRPIPNPRP and RRIRVRPPRLPRPRPRPQHSPRP are within 0.2 log units of each other in “shrunken log2 fold change” value: -0.336 for the first, -0.245 for the second.

RRIRKRPPRLPRPRPRPHVSPRP and RRIRDRPPRLPRPRPRPDPRPRP are within 0.2 log units of each other in “shrunken log2 fold change” value: -0.00259 for the first, 0.0663 for the second.

Going from RRIRPRPPRLPRPRPRPPADPRP to RRIRFRPPRLPRPRPRPSWDPRP, the “shrunken log2 fold change” value falls from 0.593 to -0.152.

First: RRIRIRPPRLPRPRPRPDEWPRP
Second: RRIRGRPPRLPRPRPRPGEVPRP
The “shrunken log2 fold change” value of the first is lower: -0.0975 for the first, 1.2 for the second.

RRIRQRPPRLPRPRPRPSTFPRP and RRIRFRPPRLPRPRPRPQSTPRP are within 0.2 log units of each other in “shrunken log2 fold change” value: -0.176 for the first, -0.249 for the second.

RRIRGRPPRLPRPRPRPSDYPRP and RRIRRRPPRLPRPRPRPANHPRP are within 0.2 log units of each other in “shrunken log2 fold change” value: 0.0378 for the first, 0.097 for the second.

Compared with RRIRERPPRLPRPRPRPKMQPRP, RRIRPRPPRLPRPRPRPAIWPRP is higher in “shrunken log2 fold change” value: -0.0537 for the first, 0.405 for the second.

RRIRTRPPRLPRPRPRPWCGPRP and RRIRVRPPRLPRPRPRPAPFPRP are within 0.2 log units of each other in “shrunken log2 fold change” value: -0.0198 for the first, 0.0259 for the second.

With RRIRFRPPRLPRPRPRPHRTPRP the “shrunken log2 fold change” value was -0.18.
